The target of this assay is T1, rhesus monkey NPRA on HEK cells bound to ANP (rhesus monkey, UniProt F7HE88 33-1061; P01160 124-151, chain 2: ANP is cyclic, its 17-residue ring closed by a disulfide bond between its two cysteines).
T1 construct: also called Rhesus NPRA
T1 sequence: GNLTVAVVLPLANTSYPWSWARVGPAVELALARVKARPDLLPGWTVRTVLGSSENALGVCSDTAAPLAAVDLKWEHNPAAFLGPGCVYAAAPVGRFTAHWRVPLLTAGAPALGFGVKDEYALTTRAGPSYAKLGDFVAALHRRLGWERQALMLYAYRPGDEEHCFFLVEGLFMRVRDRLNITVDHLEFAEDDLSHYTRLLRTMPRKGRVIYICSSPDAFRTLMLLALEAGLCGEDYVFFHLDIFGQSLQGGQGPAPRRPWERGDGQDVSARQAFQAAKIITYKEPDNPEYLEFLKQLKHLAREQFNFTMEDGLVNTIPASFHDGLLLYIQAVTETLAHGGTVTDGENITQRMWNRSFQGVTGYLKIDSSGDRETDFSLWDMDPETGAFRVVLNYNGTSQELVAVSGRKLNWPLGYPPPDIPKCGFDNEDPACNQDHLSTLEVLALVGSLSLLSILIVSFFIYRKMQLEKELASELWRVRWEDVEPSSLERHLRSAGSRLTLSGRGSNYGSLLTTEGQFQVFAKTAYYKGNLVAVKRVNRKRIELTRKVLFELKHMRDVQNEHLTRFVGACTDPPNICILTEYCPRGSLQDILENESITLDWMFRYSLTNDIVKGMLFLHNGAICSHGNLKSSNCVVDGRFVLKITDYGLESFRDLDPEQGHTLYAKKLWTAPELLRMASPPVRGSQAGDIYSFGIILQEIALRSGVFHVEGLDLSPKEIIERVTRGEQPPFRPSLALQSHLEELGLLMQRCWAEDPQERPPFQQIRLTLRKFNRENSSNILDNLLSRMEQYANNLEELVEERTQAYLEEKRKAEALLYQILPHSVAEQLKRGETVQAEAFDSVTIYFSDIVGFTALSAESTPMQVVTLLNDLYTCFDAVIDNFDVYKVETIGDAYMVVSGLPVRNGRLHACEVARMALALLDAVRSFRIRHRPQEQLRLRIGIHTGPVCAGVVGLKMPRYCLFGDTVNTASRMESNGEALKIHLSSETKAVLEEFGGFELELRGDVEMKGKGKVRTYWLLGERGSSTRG
T1 sequence (peptide): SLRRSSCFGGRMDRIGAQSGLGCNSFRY
Briefly: KinExA whole cell binding (Kd,app), HEK cells with rhesus NPRA, ANP bound. In general terms: A kinetic exclusion assay measures how much of one partner remains free in solution.

Experimental: Initial species cross-reactivity studies are performed using HEK cell lines overexpressing rat, canine and rhesus monkey NPRA. […] These apparent Kd values are obtained by globally fitting the data for two antibody concentrations.

B1: 5591 IgG4_Pro (antibody, V domains shown)
VH: QVQLQQSGPGLVKPSQTLSLTCAISGDSVSSRSASWSWIRQSPGRGLEWLGRTYYRSHWYYEYAQSVKSRITINPDTSKNQFSLQLNSVTPEDTAVYYCARMDVPSFRYFDVWGQGTLVTVSS
VL: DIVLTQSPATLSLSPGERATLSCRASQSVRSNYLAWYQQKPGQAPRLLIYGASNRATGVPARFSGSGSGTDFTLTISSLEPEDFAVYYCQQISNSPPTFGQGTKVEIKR
B1 returned a Kd of 0.266 nM.
